US20210292414A1 (H LUNDBECK A S, published 2021)

Columns and labels:
Assay in all cases: BLI (Octet384RED)
hBack = molecular target: T1, hBack
T1 chimeric human/tetraodon Sortilin extracellular region, BAP tag: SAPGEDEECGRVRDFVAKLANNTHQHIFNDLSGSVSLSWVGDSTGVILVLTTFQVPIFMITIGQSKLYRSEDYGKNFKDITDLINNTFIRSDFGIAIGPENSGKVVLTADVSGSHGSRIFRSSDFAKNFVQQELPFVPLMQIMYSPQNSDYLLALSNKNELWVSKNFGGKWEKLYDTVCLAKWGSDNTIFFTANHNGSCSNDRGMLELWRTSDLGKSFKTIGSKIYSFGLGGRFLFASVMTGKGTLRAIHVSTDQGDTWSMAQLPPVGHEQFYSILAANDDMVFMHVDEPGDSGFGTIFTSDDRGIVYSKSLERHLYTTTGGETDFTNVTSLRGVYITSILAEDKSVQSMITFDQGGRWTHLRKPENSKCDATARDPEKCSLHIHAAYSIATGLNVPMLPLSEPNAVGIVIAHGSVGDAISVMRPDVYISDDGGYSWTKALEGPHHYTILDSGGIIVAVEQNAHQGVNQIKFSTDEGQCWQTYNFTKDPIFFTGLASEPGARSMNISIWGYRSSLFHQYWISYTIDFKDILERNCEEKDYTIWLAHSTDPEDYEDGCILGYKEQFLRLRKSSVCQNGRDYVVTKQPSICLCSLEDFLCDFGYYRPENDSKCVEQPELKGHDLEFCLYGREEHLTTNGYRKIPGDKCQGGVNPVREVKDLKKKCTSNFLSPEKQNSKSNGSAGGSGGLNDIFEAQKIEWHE

hRim = molecular target: T2, hRim
T2 chimeric human/tetraodon Sortilin extracellular region, BAP tag: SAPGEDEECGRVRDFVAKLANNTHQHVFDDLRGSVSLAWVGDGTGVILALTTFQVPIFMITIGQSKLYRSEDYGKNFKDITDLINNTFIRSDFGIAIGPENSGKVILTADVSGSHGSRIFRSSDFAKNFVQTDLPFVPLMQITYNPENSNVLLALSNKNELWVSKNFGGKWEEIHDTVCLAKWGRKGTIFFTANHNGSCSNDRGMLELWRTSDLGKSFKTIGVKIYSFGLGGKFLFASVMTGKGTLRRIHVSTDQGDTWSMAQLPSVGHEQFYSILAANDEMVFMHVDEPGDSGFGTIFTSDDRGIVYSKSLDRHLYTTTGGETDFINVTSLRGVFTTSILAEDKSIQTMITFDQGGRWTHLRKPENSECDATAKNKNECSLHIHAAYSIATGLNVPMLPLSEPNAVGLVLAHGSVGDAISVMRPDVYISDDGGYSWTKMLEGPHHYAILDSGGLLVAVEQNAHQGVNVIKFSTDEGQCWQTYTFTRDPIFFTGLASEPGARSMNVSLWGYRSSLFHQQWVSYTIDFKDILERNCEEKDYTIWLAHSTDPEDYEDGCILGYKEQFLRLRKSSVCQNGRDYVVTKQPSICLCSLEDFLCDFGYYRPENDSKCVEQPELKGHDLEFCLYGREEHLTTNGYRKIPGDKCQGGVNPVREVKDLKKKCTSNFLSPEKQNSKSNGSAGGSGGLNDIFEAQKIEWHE

[1] = molecular target: T3, Sortilin SORTECDBAP_hB06-10 (human/tetraodon chimera)
T3 construct: Shuffle construct: chimeric human/tetraodon Sortilin ECD with BAP tag
T3 chain: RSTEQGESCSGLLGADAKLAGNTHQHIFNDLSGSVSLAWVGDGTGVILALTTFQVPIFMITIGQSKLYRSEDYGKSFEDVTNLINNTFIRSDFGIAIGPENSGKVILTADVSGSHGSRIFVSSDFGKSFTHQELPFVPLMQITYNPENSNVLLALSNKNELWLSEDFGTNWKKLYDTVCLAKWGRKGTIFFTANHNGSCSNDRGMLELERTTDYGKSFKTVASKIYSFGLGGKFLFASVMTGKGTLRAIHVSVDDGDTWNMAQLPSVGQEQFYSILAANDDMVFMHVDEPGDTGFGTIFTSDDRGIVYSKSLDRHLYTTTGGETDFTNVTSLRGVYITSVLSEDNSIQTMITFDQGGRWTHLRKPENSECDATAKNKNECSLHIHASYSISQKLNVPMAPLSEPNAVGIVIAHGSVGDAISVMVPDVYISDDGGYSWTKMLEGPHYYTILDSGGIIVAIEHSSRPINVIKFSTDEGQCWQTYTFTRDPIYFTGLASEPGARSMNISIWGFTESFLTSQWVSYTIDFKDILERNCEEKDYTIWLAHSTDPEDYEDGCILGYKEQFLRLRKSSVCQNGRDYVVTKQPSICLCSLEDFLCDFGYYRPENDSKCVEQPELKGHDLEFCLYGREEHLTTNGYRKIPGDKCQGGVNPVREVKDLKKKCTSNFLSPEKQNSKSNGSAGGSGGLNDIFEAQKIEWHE

Row | Binder | EC50 (hBack) | EC50 (hRim) | EC50 [1]
1 | Antibody 6003-799 (antibody, human IgG1, V domains shown) VH: QVQLVESGGGVVQPGRSLRLSCAASGFTFSSYGMHWVRQAPGKGLEWVTVISYDGSNKYYADSVKGRFTISRDNSKNTLYLQMNSLRAEDTAVYYCAKLTGDAFDIWGQGTMVTVSS VL: EIVLTQSPATLSLSPGERATLSCRASQSVSSYLVWYQQKPGQAPRLLIYHASNRATGIPARFSGSGSGTDFTLTISSLEPEDFAVYYCQQRSNWPRITFGQGTRLEIK | 3.2 ng/mL | 5.02 ng/mL | 2.63 ng/mL
2 | Antibody 6003-822 (antibody, human IgG1, V domains shown) VH: EVQLLESGGGLVQPGESLTLSCAASGFTLSSYAMSWVRQAPGKGLEWVSSISGRLGTTYYAASVKGRFTISRDNSKNTLYLQMNSLRAEDTAIYSCAKAPSDAFDIWGQGTMVTVSS VL: EIVLTQSPATLSLSPGERATLSCRASQSVSSYLAWYQQKPGQAPRLLIYDASNRATGIPARFSGSGSGTDFTLTISSLEPEDFAVYYCQQRSNWPIFTFGPGTKVDIK | 2.59 ng/mL | 2.31 ng/mL | 1.49 ng/mL
3 | Antibody 6003-886 (antibody, human IgG1, V domains shown) VH: QVQLVQSGAEVKKPGASVKVSCKASGYTFTKYGISWVRQAPGQGLEWMGWISAYNGNTNYAQKLQDRVTMTTDTFTSTAYMELRSLRSDDTAVYFCARDGPLTGDFTFYGMDVWGQGTTVTVSS VL: EIVLTQSPATLSLSPGERATLSCRASQSVSSYLAWYQQKPGQAPRLLIYDASNRATGIPARFSGSGSGTDFTLTISSLEPEDFAVYYCQQRSNWPPFTFGPGTKVDIK | 2.72 ng/mL | 4.42 ng/mL | 2.44 ng/mL
4 | IgG1-6003-910 (antibody, V domains shown, also called Antibody 6003-910) VH: not shown VL: EIVLTQSPATLSLSPGERATLSCRASQSVSSYLVWYQQKPGQAPRLLIYDASNRATGIPARFSGSGSGTDFTLTISSLEPEDFAVYYCQQRSNWPPTFGQGTRLEIK | 1.54 ng/mL | 2.59 ng/mL | 1.16 ng/mL
5 | IgG1-6003-972 (antibody, V domains shown, also called Antibody 6003-972) VH: QVQLVESGGGVVQPGRSLRLSCAASGFTFSDYAMHWVRRAPGKGLEWVVVISYDGSNKYYADSVKGRFTISRDNSKNTLYLQMNSLRAEDTAVYYCARDPSGGWYFDLWGRGTLVTVSS VL: EIVLTQSPATLSLSPGERATLSCRASQSVSSYLAWYQQKPGQAPRLLIYDASNRATGIPARFSGSGSGTDFTLTISSLEPEDFALYYCQQRSHWPRTFGQGTKVEIK | 1.49 ng/mL | 3.08 ng/mL | 1.12 ng/mL
6 | Antibody 6003-900 (antibody, human IgG1, V domains shown, also called antibody 900; Sortilin human antibody 900) VH: EVQLVESGGGLVKPGGSLRLSCAASGFTFSSYSMNWVRQAPGKGLEWVSSISSSSSYIYYADSVKGRFTISRDNAKNSLYLQMNSLRAEDTAVYYCARRGSGSYDAFDIWGQGTMVTVSS VL: EIVLTQSPDFQSVTPKEKVTITCRASQSIGYSLHWYQQKPDQSPKLLIKYASQSFSGVPSRFSGSGSGTDFTLTINSLEAEDAAAYYCHQSSSLPLTFGGGTKVEIK | 1.16 ng/mL | 1.26 ng/mL | 0.91 ng/mL
